The text below walks through data of US12679878B2, “CRF2 receptor agonists and their use in therapy” (SANOFI, priority 2020, dated 2026).

The target in this test is human corticotropin-releasing factor 2α (CRF2 α receptor) (human), Q13324. In words: cell-based or functional assay.

Starred links: 1 amine or outer side, 2 acyl side, 3 side chain; linkers in the order of their positions; H or OH if unused. Non-standard residues stand in square brackets, D forms with d. Groups on a side chain read outwards from the residue. No end group written: not given here. *: point of attachment. C18 diacid = O=C(O)CCCCCCCCCCCCCCCCC(=O)*; γGlu = O=C(O)[C@H](CCC(=O)[*:2])N[*:1]; Palmitoyl = CCCCCCCCCCCCCCCC(=O)*; AEEA = NCCOCCOCC(=O)O; Aib = CC(C)(N)C(=O)O

Sequence of human corticotropin-releasing factor 2α (CRF2 α receptor) (human), Q13324 (Q13324 20-411): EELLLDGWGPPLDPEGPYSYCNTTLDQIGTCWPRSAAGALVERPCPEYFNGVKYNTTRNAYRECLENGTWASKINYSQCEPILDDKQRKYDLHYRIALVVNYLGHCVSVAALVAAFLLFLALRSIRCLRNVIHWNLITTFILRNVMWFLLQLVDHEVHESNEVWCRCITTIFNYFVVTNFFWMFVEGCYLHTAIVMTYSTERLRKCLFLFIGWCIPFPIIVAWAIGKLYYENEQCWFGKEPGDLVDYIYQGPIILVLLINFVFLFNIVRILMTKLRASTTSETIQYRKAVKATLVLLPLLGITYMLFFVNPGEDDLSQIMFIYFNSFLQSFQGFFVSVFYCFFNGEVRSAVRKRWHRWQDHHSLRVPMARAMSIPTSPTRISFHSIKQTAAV

B1: SEQ ID NO: 95 (peptide)
peptide: IVLSLDVPIKLK([AEEA-AEEA-γGlu-C18 diacid])QKLLKQERQKKEREQAETNKQILAQV-NH2
modifications: N-terminus assumed
SMILES: CC[C@H](C)[C@H](N)C(=O)N[C@H](C(=O)N[C@@H](CC(C)C)C(=O)N[C@@H](CO)C(=O)N[C@@H](CC(C)C)C(=O)N[C@@H](CC(=O)O)C(=O)N[C@H](C(=O)N1CCC[C@H]1C(=O)N[C@H](C(=O)N[C@@H](CCCCN)C(=O)N[C@@H](CC(C)C)C(=O)N[C@@H](CCCCNC(=O)COCCOCCNC(=O)COCCOCCNC(=O)CC[C@H](NC(=O)CCCCCCCCCCCCCCCCC(=O)O)C(=O)O)C(=O)N[C@@H](CCC(N)=O)C(=O)N[C@@H](CCCCN)C(=O)N[C@@H](CC(C)C)C(=O)N[C@@H](CC(C)C)C(=O)N[C@@H](CCCCN)C(=O)N[C@@H](CCC(N)=O)C(=O)N[C@@H](CCC(=O)O)C(=O)N[C@@H](CCCNC(=N)N)C(=O)N[C@@H](CCC(N)=O)C(=O)N[C@@H](CCCCN)C(=O)N[C@@H](CCCCN)C(=O)N[C@@H](CCC(=O)O)C(=O)N[C@@H](CCCNC(=N)N)C(=O)N[C@@H](CCC(=O)O)C(=O)N[C@@H](CCC(N)=O)C(=O)N[C@@H](C)C(=O)N[C@@H](CCC(=O)O)C(=O)N[C@H](C(=O)N[C@@H](CC(N)=O)C(=O)N[C@@H](CCCCN)C(=O)N[C@@H](CCC(N)=O)C(=O)N[C@H](C(=O)N[C@@H](CC(C)C)C(=O)N[C@@H](C)C(=O)N[C@@H](CCC(N)=O)C(=O)N[C@H](C(N)=O)C(C)C)[C@@H](C)CC)[C@@H](C)O)[C@@H](C)CC)C(C)C)C(C)C
B1: the EC50 [nM], 0% HSA is 25 nM.

B2: SEQ ID NO: 98 (peptide)
peptide: IVLSLDVPIKLK([AEEA-AEEA-γGlu-C18 diacid])QKLLKQERQKK[Aib]REQAETNKQILAQV-NH2
modifications: N-terminus assumed
SMILES: CC[C@H](C)[C@H](N)C(=O)N[C@H](C(=O)N[C@@H](CC(C)C)C(=O)N[C@@H](CO)C(=O)N[C@@H](CC(C)C)C(=O)N[C@@H](CC(=O)O)C(=O)N[C@H](C(=O)N1CCC[C@H]1C(=O)N[C@H](C(=O)N[C@@H](CCCCN)C(=O)N[C@@H](CC(C)C)C(=O)N[C@@H](CCCCNC(=O)COCCOCCNC(=O)COCCOCCNC(=O)CC[C@H](NC(=O)CCCCCCCCCCCCCCCCC(=O)O)C(=O)O)C(=O)N[C@@H](CCC(N)=O)C(=O)N[C@@H](CCCCN)C(=O)N[C@@H](CC(C)C)C(=O)N[C@@H](CC(C)C)C(=O)N[C@@H](CCCCN)C(=O)N[C@@H](CCC(N)=O)C(=O)N[C@@H](CCC(=O)O)C(=O)N[C@@H](CCCNC(=N)N)C(=O)N[C@@H](CCC(N)=O)C(=O)N[C@@H](CCCCN)C(=O)N[C@@H](CCCCN)C(=O)NC(C)(C)C(=O)N[C@@H](CCCNC(=N)N)C(=O)N[C@@H](CCC(=O)O)C(=O)N[C@@H](CCC(N)=O)C(=O)N[C@@H](C)C(=O)N[C@@H](CCC(=O)O)C(=O)N[C@H](C(=O)N[C@@H](CC(N)=O)C(=O)N[C@@H](CCCCN)C(=O)N[C@@H](CCC(N)=O)C(=O)N[C@H](C(=O)N[C@@H](CC(C)C)C(=O)N[C@@H](C)C(=O)N[C@@H](CCC(N)=O)C(=O)N[C@H](C(N)=O)C(C)C)[C@@H](C)CC)[C@@H](C)O)[C@@H](C)CC)C(C)C)C(C)C
As for B2, the EC50 [nM], 0% HSA was found to be 2.36 nM.

B3: SEQ ID NO: 96 (peptide)
peptide: IVLSLDVPIKLK([AEEA-AEEA-γGlu-C18 diacid])QILLKQERQKKEREQAETNKQILAQV-NH2
modifications: N-terminus assumed
SMILES: CC[C@H](C)[C@H](N)C(=O)N[C@H](C(=O)N[C@@H](CC(C)C)C(=O)N[C@@H](CO)C(=O)N[C@@H](CC(C)C)C(=O)N[C@@H](CC(=O)O)C(=O)N[C@H](C(=O)N1CCC[C@H]1C(=O)N[C@H](C(=O)N[C@@H](CCCCN)C(=O)N[C@@H](CC(C)C)C(=O)N[C@@H](CCCCNC(=O)COCCOCCNC(=O)COCCOCCNC(=O)CC[C@H](NC(=O)CCCCCCCCCCCCCCCCC(=O)O)C(=O)O)C(=O)N[C@@H](CCC(N)=O)C(=O)N[C@H](C(=O)N[C@@H](CC(C)C)C(=O)N[C@@H](CC(C)C)C(=O)N[C@@H](CCCCN)C(=O)N[C@@H](CCC(N)=O)C(=O)N[C@@H](CCC(=O)O)C(=O)N[C@@H](CCCNC(=N)N)C(=O)N[C@@H](CCC(N)=O)C(=O)N[C@@H](CCCCN)C(=O)N[C@@H](CCCCN)C(=O)N[C@@H](CCC(=O)O)C(=O)N[C@@H](CCCNC(=N)N)C(=O)N[C@@H](CCC(=O)O)C(=O)N[C@@H](CCC(N)=O)C(=O)N[C@@H](C)C(=O)N[C@@H](CCC(=O)O)C(=O)N[C@H](C(=O)N[C@@H](CC(N)=O)C(=O)N[C@@H](CCCCN)C(=O)N[C@@H](CCC(N)=O)C(=O)N[C@H](C(=O)N[C@@H](CC(C)C)C(=O)N[C@@H](C)C(=O)N[C@@H](CCC(N)=O)C(=O)N[C@H](C(N)=O)C(C)C)[C@@H](C)CC)[C@@H](C)O)[C@@H](C)CC)[C@@H](C)CC)C(C)C)C(C)C
Turning to B3, the EC50 [nM], 0% HSA came to 0.38 nM.

B4: SEQ ID NO: 94 (peptide)
peptide: IVLSLDVPIKLK([AEEA-AEEA-γGlu-C18 diacid])KILLKQERQKKEREQAETNKQILAQV-NH2
modifications: N-terminus assumed
SMILES: CC[C@H](C)[C@H](N)C(=O)N[C@H](C(=O)N[C@@H](CC(C)C)C(=O)N[C@@H](CO)C(=O)N[C@@H](CC(C)C)C(=O)N[C@@H](CC(=O)O)C(=O)N[C@H](C(=O)N1CCC[C@H]1C(=O)N[C@H](C(=O)N[C@@H](CCCCN)C(=O)N[C@@H](CC(C)C)C(=O)N[C@@H](CCCCNC(=O)COCCOCCNC(=O)COCCOCCNC(=O)CC[C@H](NC(=O)CCCCCCCCCCCCCCCCC(=O)O)C(=O)O)C(=O)N[C@@H](CCCCN)C(=O)N[C@H](C(=O)N[C@@H](CC(C)C)C(=O)N[C@@H](CC(C)C)C(=O)N[C@@H](CCCCN)C(=O)N[C@@H](CCC(N)=O)C(=O)N[C@@H](CCC(=O)O)C(=O)N[C@@H](CCCNC(=N)N)C(=O)N[C@@H](CCC(N)=O)C(=O)N[C@@H](CCCCN)C(=O)N[C@@H](CCCCN)C(=O)N[C@@H](CCC(=O)O)C(=O)N[C@@H](CCCNC(=N)N)C(=O)N[C@@H](CCC(=O)O)C(=O)N[C@@H](CCC(N)=O)C(=O)N[C@@H](C)C(=O)N[C@@H](CCC(=O)O)C(=O)N[C@H](C(=O)N[C@@H](CC(N)=O)C(=O)N[C@@H](CCCCN)C(=O)N[C@@H](CCC(N)=O)C(=O)N[C@H](C(=O)N[C@@H](CC(C)C)C(=O)N[C@@H](C)C(=O)N[C@@H](CCC(N)=O)C(=O)N[C@H](C(N)=O)C(C)C)[C@@H](C)CC)[C@@H](C)O)[C@@H](C)CC)[C@@H](C)CC)C(C)C)C(C)C
In the case of B4, the EC50 [nM], 0% HSA is 1.73 nM and the EC50 [nM], 0.1% HSA worked out at 49.1 nM.
The matching figures for IVLSLD[dV]PTKLK([γGlu-Palmitoyl])QKLLKQERQRKEREQAEKNARILARV-NH2 [SEQ ID NO: 7]: 0.02 nM and 0.03 nM.

B5: SEQ ID NO: 99 (peptide)
peptide: IVLSLDVPIKLK([AEEA-AEEA-γGlu-C18 diacid])KILLKQERQKK[Aib]REQAEKNKQILAQV-NH2
modifications: N-terminus assumed
SMILES: CC[C@H](C)[C@H](N)C(=O)N[C@H](C(=O)N[C@@H](CC(C)C)C(=O)N[C@@H](CO)C(=O)N[C@@H](CC(C)C)C(=O)N[C@@H](CC(=O)O)C(=O)N[C@H](C(=O)N1CCC[C@H]1C(=O)N[C@H](C(=O)N[C@@H](CCCCN)C(=O)N[C@@H](CC(C)C)C(=O)N[C@@H](CCCCNC(=O)COCCOCCNC(=O)COCCOCCNC(=O)CC[C@H](NC(=O)CCCCCCCCCCCCCCCCC(=O)O)C(=O)O)C(=O)N[C@@H](CCCCN)C(=O)N[C@H](C(=O)N[C@@H](CC(C)C)C(=O)N[C@@H](CC(C)C)C(=O)N[C@@H](CCCCN)C(=O)N[C@@H](CCC(N)=O)C(=O)N[C@@H](CCC(=O)O)C(=O)N[C@@H](CCCNC(=N)N)C(=O)N[C@@H](CCC(N)=O)C(=O)N[C@@H](CCCCN)C(=O)N[C@@H](CCCCN)C(=O)NC(C)(C)C(=O)N[C@@H](CCCNC(=N)N)C(=O)N[C@@H](CCC(=O)O)C(=O)N[C@@H](CCC(N)=O)C(=O)N[C@@H](C)C(=O)N[C@@H](CCC(=O)O)C(=O)N[C@@H](CCCCN)C(=O)N[C@@H](CC(N)=O)C(=O)N[C@@H](CCCCN)C(=O)N[C@@H](CCC(N)=O)C(=O)N[C@H](C(=O)N[C@@H](CC(C)C)C(=O)N[C@@H](C)C(=O)N[C@@H](CCC(N)=O)C(=O)N[C@H](C(N)=O)C(C)C)[C@@H](C)CC)[C@@H](C)CC)[C@@H](C)CC)C(C)C)C(C)C
B5 came in with an EC50 [nM], 0% HSA of 0.06 nM and an EC50 [nM], 0.1% HSA of 1.6 nM.

B6: SEQ ID NO: 97 (peptide)
peptide: IVLSLDVPIKLK([AEEA-AEEA-γGlu-C18 diacid])QKLLKQERQKKQREQAETNKQILAQV-NH2
modifications: N-terminus assumed
SMILES: CC[C@H](C)[C@H](N)C(=O)N[C@H](C(=O)N[C@@H](CC(C)C)C(=O)N[C@@H](CO)C(=O)N[C@@H](CC(C)C)C(=O)N[C@@H](CC(=O)O)C(=O)N[C@H](C(=O)N1CCC[C@H]1C(=O)N[C@H](C(=O)N[C@@H](CCCCN)C(=O)N[C@@H](CC(C)C)C(=O)N[C@@H](CCCCNC(=O)COCCOCCNC(=O)COCCOCCNC(=O)CC[C@H](NC(=O)CCCCCCCCCCCCCCCCC(=O)O)C(=O)O)C(=O)N[C@@H](CCC(N)=O)C(=O)N[C@@H](CCCCN)C(=O)N[C@@H](CC(C)C)C(=O)N[C@@H](CC(C)C)C(=O)N[C@@H](CCCCN)C(=O)N[C@@H](CCC(N)=O)C(=O)N[C@@H](CCC(=O)O)C(=O)N[C@@H](CCCNC(=N)N)C(=O)N[C@@H](CCC(N)=O)C(=O)N[C@@H](CCCCN)C(=O)N[C@@H](CCCCN)C(=O)N[C@@H](CCC(N)=O)C(=O)N[C@@H](CCCNC(=N)N)C(=O)N[C@@H](CCC(=O)O)C(=O)N[C@@H](CCC(N)=O)C(=O)N[C@@H](C)C(=O)N[C@@H](CCC(=O)O)C(=O)N[C@H](C(=O)N[C@@H](CC(N)=O)C(=O)N[C@@H](CCCCN)C(=O)N[C@@H](CCC(N)=O)C(=O)N[C@H](C(=O)N[C@@H](CC(C)C)C(=O)N[C@@H](C)C(=O)N[C@@H](CCC(N)=O)C(=O)N[C@H](C(N)=O)C(C)C)[C@@H](C)CC)[C@@H](C)O)[C@@H](C)CC)C(C)C)C(C)C
In the case of B6, the EC50 [nM], 0% HSA was 1.66 nM.
